Results as given in the supplement of paper PMC9732359.
± gives the uncertainty stated by the source.

Assay: protein stability index of a GFP-peptide fusion (yeast GPS) (PSI 1-4); higher = more stable; sorted into four equal gates, so the index is relative within each strain
In short: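 Yeast carrying a pooled library were grown to mid-log phase in leucine-free medium. Each library plasmid expresses Cherry and has a tiled 17-residue yeast protein peptide fused downstream of GFP. Cells were sorted into four equal gates by GFP/Cherry ratio, and plasmids from each gate were PCR-amplified, Illumina-sequenced and assigned to strains by barcode. Summing, across gates, the read frequency times the gate number gave each peptide's protein stability index.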

Row | Sequence | protein stability index (doa10∆) | protein stability index (pdr5∆) | protein stability index (san1∆) | protein stability index (ubr1∆)
1 | CAECSSKLSLSRTDAVR [RPC10] | 2.12 ± 0.049 | 2.16 ± 0.047 | 2.51 ± 0.061 | 2.35 ± 0.05
2 | SSNTNNNTNNNNTNTGA [SWI1] | 3.48 ± 0.071 | 3.29 ± 0.069 | 3.29 ± 0.057 | 3.33 ± 0.065
3 | VQKSTKTFSYKRPSTFY [RPL20A] | 2.73 ± 0.15 | 3.34 ± 0.084 | 3.06 ± 0.085 | 2.23 ± 0.065
4 | FTNGVLAVTNLLIISCI [YML031W/NDC1] | 1.89 ± 0.18 | 1.85 ± 0.17 | 1.79 ± 0.14 | 
5 | QIIRRVKEMEPKQSDEY [SIR3] | 3.29 ± 0.12 | 3.18 ± 0.11 | 3.37 ± 0.069 | 2.89 ± 0.15
6 | IEHPMTSAIEVLVGSCA [RPN1] | 1.94 ± 0.043 | 1.81 ± 0.042 | 2.14 ± 0.057 | 1.82 ± 0.046
7 | DDSFSLLRIQMLLCVSY [PCI8] | 2.1 ± 0.042 | 2.05 ± 0.045 | 2.08 ± 0.052 | 2.42 ± 0.034
8 | HAYRDVLAQYHEAKERI [SNF6] | 2.98 ± 0.066 | 3.43 ± 0.071 | 3.09 ± 0.059 | 3.31 ± 0.051
9 | GISVPFHSTYLMNGVKP [FAS1] | 1.46 ± 0.042 | 1.51 ± 0.04 | 1.27 ± 0.074 | 1.39 ± 0.027
10 | QLSNGIVVATEHNPSAH [COR1] | 2.88 ± 0.075 | 3.08 ± 0.1 | 3.2 ± 0.059 | 2.52 ± 0.074
11 | LEDLKDVYASKVRLNAS [PRP8] | 2.31 ± 0.043 | 2.1 ± 0.041 | 2.47 ± 0.047 | 2.27 ± 0.04
12 | IFLAERRILPKPSRTSR [RPS7A] |  | 3.15 ± 0.21 | 2.8 ± 0.14 | 2.89 ± 0.13
13 | MENTLGEGSTVNASVDV [SWI3] |  |  |  | 3.54 ± 0.21
14 | RQDGSYTYHSTNKDNKA [ARP9] | 2.67 ± 0.062 | 2.97 ± 0.067 | 2.88 ± 0.044 | 2.64 ± 0.056
15 | CTLTADGAYALSASWDK [ASC1] | 3.08 ± 0.051 | 3.25 ± 0.051 | 3.19 ± 0.075 | 3.19 ± 0.038
16 | SGGNNTATIINNESSDD [PCI8] | 2.63 ± 0.091 | 2.65 ± 0.087 | 2.69 ± 0.092 | 3.17 ± 0.055
17 | HKSIELISNLLFSKNRN [YCS4] | 2.25 ± 0.055 | 2.47 ± 0.047 | 2.52 ± 0.046 | 2.41 ± 0.05
18 | NLLVLRGKNEIIQNAQR [RPO21] | 1.56 ± 0.11 | 1.41 ± 0.092 | 1.69 ± 0.16 | 1.26 ± 0.085
19 | NMTTIADRNDDDEGSFA [SRB6] | 3.72 ± 0.17 | 3.4 ± 0.3 | 3.33 ± 0.094 | 3.44 ± 0.079
20 | IKNIGKSLKNNFYRPLL [YML103C/NUP188] | 2.6 ± 0.08 | 2.62 ± 0.1 | 2.7 ± 0.079 | 2.77 ± 0.078
21 | GGNSNKSPPQFFYNISS [SIN4] | 2.76 ± 0.043 | 3.04 ± 0.049 | 2.76 ± 0.037 | 2.58 ± 0.041
22 | SLLNLLNISPFTFGLTV [RPP0] | 1.79 ± 0.049 | 1.91 ± 0.049 | 1.56 ± 0.078 | 1.84 ± 0.044
23 | EDFLDKSYYLNTVMLQG [AAR2] | 2.02 ± 0.067 | 2.24 ± 0.097 | 2.24 ± 0.15 | 1.22 ± 0.052
24 | RFNHLVTRLFFICSIIQ [YML031W/NDC1] | 1.22 ± 0.046 | 1.29 ± 0.039 | 1.32 ± 0.086 | 1.49 ± 0.039
25 | SLNEVGTLKVILNLYSS [YML103C/NUP188] | 1.93 ± 0.12 | 2.11 ± 0.29 |  | 2.4 ± 0.11
26 | IIGHNPDENKTRVRLPS [RPL2A] | 2.93 ± 0.074 | 3.09 ± 0.077 | 2.93 ± 0.046 | 3 ± 0.048

Row | Sequence | protein stability index (doa10∆) | protein stability index (pdr5∆) | protein stability index (san1∆) | protein stability index (ubr1∆)
27 | VRFIGDSVAAIGIPVNK [QCR2] | 2.83 ± 0.13 | 2.52 ± 0.16 | 2.4 ± 0.14 | 3.02 ± 0.2
28 | PMLMANNDVFTIGPYRA [SSN3] | 3.04 ± 0.07 | 3.3 ± 0.082 | 3.13 ± 0.072 | 3.14 ± 0.058
29 | AKPDARTQAGDIVSIDI [MTW1] | 3.27 ± 0.13 | 3.53 ± 0.13 | 3.55 ± 0.091 | 3.64 ± 0.098
30 | KAANFIQNQSPQFNSPY [SWI1] | 1.99 ± 0.061 | 1.71 ± 0.046 | 2.37 ± 0.065 | 2.42 ± 0.058
31 | NYDIITASSLAHDYNND [YML103C/NUP188] | 2.64 ± 0.063 | 2.05 ± 0.075 | 2.61 ± 0.087 | 2.33 ± 0.056
32 | NKGRAVYINPSGEKIDF [BRR2] | 2.98 ± 0.13 | 2.76 ± 0.1 | 2.91 ± 0.071 | 3.17 ± 0.098
33 | AYKFEEVSKDLIAVYYS [RPB8] | 2.94 ± 0.071 | 3.14 ± 0.067 | 3.32 ± 0.045 | 3.11 ± 0.055
34 | VRKETYSSYIYKVLKQT [HTB2] | 3.08 ± 0.074 | 3.26 ± 0.065 | 3.24 ± 0.051 | 3.12 ± 0.038
35 | KDNAKISNNLALVFAAL [SRP68] | 2.24 ± 0.051 | 1.86 ± 0.038 | 1.97 ± 0.066 | 2.17 ± 0.04
36 | YVSDSDDSSSDNDSLTD [SIR4] | 2.51 ± 0.051 | 2.94 ± 0.038 | 2.67 ± 0.056 | 2.63 ± 0.047
37 | LFQNVPEQGEEPMKQLN [YAR002W/NUP60] | 3.62 ± 0.15 | 3.32 ± 0.16 | 3.51 ± 0.12 | 3.17 ± 0.12
38 | MTTTIGSPQMLANEERL [RGR1] |  |  |  | 2.63 ± 0.25
39 | TLEDALRRIITDLNQDS [GRR1] | 2.01 ± 0.074 | 1.86 ± 0.063 | 2.1 ± 0.067 | 2.4 ± 0.053
40 | ILLSHHRASPADVSIKS [POP5] | 2.79 ± 0.24 | 3.4 ± 0.18 | 3.24 ± 0.062 | 
41 | EEDYNEFNSIDRVIFRV [PRP8] | 3.27 ± 0.1 | 3.17 ± 0.11 | 3.02 ± 0.19 | 2.94 ± 0.068
42 | FYVQDVYKDNLSFIQVR [RPO31] | 1.98 ± 0.049 | 1.69 ± 0.05 | 1.92 ± 0.068 | 1.88 ± 0.041
43 | LPSSNGSSRIIASDGSE [RRP42] | 3.08 ± 0.091 | 2.86 ± 0.11 | 3.17 ± 0.11 | 2.74 ± 0.085
44 | SDTLKEFKIEQNNEQNP [YDL116W/NUP84] | 2.79 ± 0.23 | 3.01 ± 0.15 | 2.8 ± 0.1 | 3.3 ± 0.22
45 | AGIRPKFILALNDEGEP [RPN1] |  | 1.9 ± 0.14 | 2.72 ± 0.24 | 1.46 ± 0.073
46 | VITPHFITNVQSISQNS [SWI1] | 1.85 ± 0.11 | 2.45 ± 0.11 | 2.2 ± 0.14 | 1.73 ± 0.073
47 | KKRLMDIDDELNELETL [SMC2] | 3.05 ± 0.058 | 3.17 ± 0.067 | 3 ± 0.034 | 3.37 ± 0.035
48 | PEYGRIIASASYDKTVK [YGL100W/SEH1] | 2.27 ± 0.079 | 2.28 ± 0.082 | 3.03 ± 0.087 | 2.11 ± 0.056
49 | MTVKLESITYQKIMILQ [RGR1] | 2.16 ± 0.071 | 1.73 ± 0.068 | 1.6 ± 0.095 | 2.56 ± 0.076
50 | NALWILVDLVSHFSPDI [ITC1] | 1.55 ± 0.07 | 1.56 ± 0.079 | 1.67 ± 0.11 | 1.95 ± 0.051
51 | TMQPPYIQERLKSLNDI [MED11] | 2.89 ± 0.086 | 2.86 ± 0.12 | 3.13 ± 0.068 | 2.82 ± 0.056
52 | AILVPMTVNDQPIEKNG [YJR042W/NUP85] | 2.44 ± 0.11 | 1.79 ± 0.073 | 2.84 ± 0.074 | 2.8 ± 0.079
